{"source": "the DeepSol protein solubility set", "data": [{"assay": "soluble on expression in E. coli; label from the status in PepcDB or PDB records", "values": [{"sequence": "GKNTPKSAIIYTTMGDIHISLFYKECKKTVQNFSVHSINGYYNNCIFHRVIKHFMVQTGDPSGDGTGGESIWGNEFEDEFFDHLNHSKPFMVSMANCGPNTNGSQFFITTVPCPWLDFKHTVFGKVTQGSKIVLDIEKVRTDKRDKPLEDIKILNIKINN", "soluble on expression in E. coli": "soluble"}, {"sequence": "GKPFSYGASFNLTFARNRYLRYPDSPNTVEWRKRTGRSVDASVVWVAEGLFRSEEEIDNSAWYGTRPNVGDIKYKDLNGDGKIDEDDRTRVGRGNRPELTYGLNLNCAWNGFDLSAQFTGGALFDVSLTGTYYNGYDDNTVWTQAFKEGANSPLYLVQNAYTTENPNGTFPRLTLGNQGHGGDNGLASTFWLRNGRYLRLKSAQLGYTFPKKWMSPVGIQNLRIYVEGSNLFTISGLPDGIDPESPGVNNGYYPQQRTIMGGITLTF", "soluble on expression in E. coli": "not soluble"}, {"sequence": "GKQNTSAIEALAPHSVVFTTAGGSSPEFTSSEISEQQAERWKDSTPLGVSQTRIESDQNANTTAVMGLPEGTPLPDSVGGFIEQGALLPAELADFLHVRA", "soluble on expression in E. coli": "not soluble"}, {"sequence": "GKRLSFEDGLVLYQTKDLPTLMRLANLVRERKHGHKTYFVHSIRVSQTNICYVGCTFCAFQRRFGEEGAWDWDVDEVVAWVKERYQPGLTEIHLTAGHHPKRPFAYYLDLVRALKENFPGVQVKAWTAAEIHHFSKIARLPYREVLKALKEAGLDAMPGGGAEIFAERVRRKIARAKVSAEGWLEIHRTAHELGIPTNATMLYGHIETLEERLDHMDRLRRLQDETGGFMSFIPLAFQPDGNQLARELGKKEFTTGLDDLRNLAVARLYLDNFPHIKGYWATLTPELAQVSLDWGVTDVDGTLIEERIVHMAGSPTPQGLTKRELARIILMAGRIPVER", "soluble on expression in E. coli": "not soluble"}, {"sequence": "GLMALLMVFAVSIGGLTQIVPLFFQDVTNKPVEGMKPYTALQLEGRDVYIREGCVGCHSQMIRPFRAETERYGHYSVAGESVWDHPFLWGSKRTGPDLARVGGRYSDDWHRAHLYNPRNVVPESKMPSYPWLVAQPVDNSHTDVKMRTLRTLGVPYTDDDIAGAREAVKGKTEMDALVAYLQVLGT", "soluble on expression in E. coli": "not soluble"}, {"sequence": "GLNFPTYDGKDRVVSLSEKNFKQVLKKYDLLCLYYHEPVSSDKVTQKQFQLKEIVLELVAQVLEHKAIGFVMVDAKKEAKLAKKLGFDEEGSLYILKGDRTIEFDGEFAADVLVEFLLDLIEDPVEIISSKLEVQAFERIEDYIKLIGFFKSEDSEYYKAFEEAAEHFQPYIKFFATFDKGVAKKLSLKMNEVDFYEPFMDEPIAIPNKPYTEEELVEFVKEHQRPTLRRLRPEEMFETWEDDLNGIHIVAFAEKSDPDGYEFLEILKQVARDNTDNPDLSILWIDPDDFPLLVAYWEKTFKIDLFRPQIGVVNVTDADSVWMEIPDDDDLPTAEELEDWIEDVLSGKINTEDDDEDDDDDDNSDEEDNDDSDDDDDE", "soluble on expression in E. coli": "soluble"}, {"sequence": "GLNSVIKPTKYKPVPDEEPNSTDVEETLKRIQNNDPDLEEVNLNNIMNIPVPTLKACAEALKTNTYVKKFSIVGTRSNDPVAFALAEMLKVNNTLKSLNVESNFISGSGILALVEALQSNTSLIELRIDNQSQPLGNNVEMEIANMLEKNTTLLKFGYHFTQQGPRLRASNAMMNNNDLVRKRRL", "soluble on expression in E. coli": "soluble"}, {"sequence": "GMADPKELQDKFWKALKSDRTVMLGLDGVEDGHARPMTAQIEGDSGGPIWFFTSKDNALIAMLGQGRRVIGAFSSKGHDLFASISGSLREDTDPAVVDRLWNPYVAAWYEGGKDDPKLALLRLDADHAQIWLNGSSLLAGIKVLLGV", "soluble on expression in E. coli": "soluble"}, {"sequence": "GMASIKGEVDEIANYGNLKITKEEERVNITGDLEKFSSLEEGTIVTRFNMNDTSIQSLIGLSDGNKANNYFSLYVSGGKVGYELRRQEGNGDFNVHHSADVTFNRGINTLALKIEKGIGAKIFLNGSLVKTVSDPNIKFLNAINLNSGFIGKTDRANGYNEYLFRGNIDFMNIYDKPVSDNYLLRKTGETK", "soluble on expression in E. coli": "soluble"}, {"sequence": "GMDDLTNLAARLRLLEDREEIRELIARYGPLADSGDAEALSELWVEDGEYAVVGFATAKGRAAIAALIDGQTHRALMADGCAHFLGPATVTVEGDTATARCHSVVFRCVSGTFGSHRVSANRWTFRRTPAGWRAVRRENALLDGSAAARALLQFR", "soluble on expression in E. coli": "soluble"}, {"sequence": "GMDMKKHGLSIGINRIESVFFVTLKAIGTLTHEDYLVITPMLEGALSQVDQPKVSLFLDATELDGWDLRAAWDDLKLGLKHKSEFERVAILGNKDWQEWAAKIGSWFIAGEIKYFEDEDDALKWLRY", "soluble on expression in E. coli": "soluble"}, {"sequence": "GMELDDAYANGAYIEGAADYPPRWAASAEDFRNSLQDRARLNLSYGEGDRHKFDLFLPEGTPVGLFVFVHGGYWMAFDKSSWSHLAVGALSKGWAVAMPSYELCPEVRISEITQQISQAVTAAAKEIDGPIVLAGHSAGGHLVARMLDPEVLPEAVGARIRNVVPISPLSDLRPLLRTSMNEKFKMDADAAIAESPVEMQNRYDAKVTVWVGGAERPAFLDQAIWLVEAWDADHVIAFEKHHFNVIEPLADPESDLVAVITA", "soluble on expression in E. coli": "soluble"}, {"sequence": "GMFVQSALHQLKVAVDTSIQMLDQYTEIDLKIAPIQSKRSLFEMYAHLSLICHADLLILNGSTEKELHTFYKEQTPETIAQMQKTMIQGYDLLSKTFLSYSNEQLAEMKTAYWGISYSRFEWLLEIVAHFYHHRGQIHILLCEHMKDPNIPLFQ", "soluble on expression in E. coli": "soluble"}, {"sequence": "GMGISNIKQLYSKWKSLQPLKPEDLKRWNDKFKLEFNYNSNHLEGNTLTYGQTKLLLMFGETSGNASLKDYEEMKAHNVGLEMIKQEAQDKERPLTESFIRELNRTILVQDYWKNAKTPDGQDIRMQIKVGEYKSRPNSVLTATGEVFSYASPEETPAFMTSLVDWYNLEADKGILTPVELAALLHYRYIRIHPFEDGNGRIARLLVNFVLHRYGYPMIVIHSEDKSNYLNILHQCDVEAGLTPSDGANATLNDILPFVNYLSSCLIRSLTLAIKAAKGESIEEEGDFDKK", "soluble on expression in E. coli": "soluble"}, {"sequence": "GMHTDVNALFAALWQDYIKMTPSAAKIHQLLGHGAPIINDHIALRTFNIAKVNLSVLAKHFTSIGYVDSGDYKFEQKKLIAKHFEHPDPKQPKVFISELLVEEFSPEVQKSIHGLIDQVDIAATTADNFIYSGRHWDVDKATYQALLAESEYAAWVAALGYRANHFTVSINDLPEFERIEDVNQALKQAGFVLNSSGGEVKGSPEVLLEQSSTMADKVVVNFTDGDVEIPSCFYEFARRYPMANGQLYTGFVAASADKIFESTNAMM", "soluble on expression in E. coli": "soluble"}, {"sequence": "GMINQERLVNEFMELVQVDSETKFEAEICKVLTKKFTDLGVEVFEDDTMAVTGHGAGNLICTLPATKDGVDTIYFTSHMDTVVPGNGIKPSIKDGYIVSDGTTILGADDKAGLASMFEAIRVLKEKNIPHGTIEFIITVGEESGLVGAKALDRERITAKYGYALDSDGKVGEIVVAAPTQAKVNAIIRGKTAHAGVAPEKGVSAITIAAKAIAKMPLGRIDSETTANIGRFEGGTQTNIVCDHVQIFAEARSLINEKMEAQVAKMKEAFETTAKEMGGHADVEVNVMYPGFKFADGDHVVEVAKRAAEKIGRTPSLHQSGGGSDANVIAGHGIPTVNLAVGYEEIHTTNEKIPVEELAKTAELVVAIIEEVAK", "soluble on expression in E. coli": "soluble"}, {"sequence": "GMKRVLLLFDVDGTLTPPRLCQTDEMRALIKRARGAGFCVGTVGGSDFAKQVEQLGRDVLTQFDYVFAENGLLAYRNGLEIHRQSLLNALGNDRIVKFVKKTLRLIADLDIPVQRGTFVEYRNGMINVSPIGRNCSQAERDEFEVYDNEHRVRASLIAELENSFPDFGLKYSIGGQISFDVFPVGWDKTYCLQFVEDDFEEIHFFGDKTQEGGNDYEIYTDKRTIGHKVTSYKDTIAEVEKIIAMK", "soluble on expression in E. coli": "soluble"}, {"sequence": "GMNISNLINADVDEKGFVSDKLRDNFFQIVRNRPENRTCFDCESRNPTWLSLSFAVFICLNCSSDHRKMGVHISFVRSSDLDKFTPIQLVRMDIGGNGRARNYFKQVLGVNFSPKTKEYASSICGRQYKQILDSEISE", "soluble on expression in E. coli": "soluble"}, {"sequence": "GMNSGKVAFIVTKNGKRICDVIDECSQRGSTILKAQGGYKQDDIQVVMCACNSKEMYQVRKSVKDTDPDSFIVVVESHEVHGEGFKMTNIGEAEN", "soluble on expression in E. coli": "not soluble"}, {"sequence": "GMPELAVQKVVVHPLVLLSVVDHFNRIGKVGNQKRVVGVLLGSWQKKVLDVSNSFAVPFDEDDKDDSVWFLDHDYLENMYGMFKKVNARERIVGWYHTGPKLHKNDIAINELMKRYCPNSVLVIIDVKPKDLGLPTEAYISVEEVHDDGTPTSKTFEHVTSEIGAEEAEEVGVEHLLRDIKDTTVGT", "soluble on expression in E. coli": "soluble"}, {"sequence": "GMRKDDVVIVTCAITGAIHTPSMSPYLPVTPDQIVEEAVKAAEAGAGMVHIHARDPKDGRPTTDVEVFRYICREIKKQSDVVINVTTGGGGTLGIPVEERAKVVPALKPEIATFNMGSMNFAIHPLLKKYKEFKYDWEPEYLEMTRDIVFRNTFKDLEALSRIFKENDTKPELECYDIGQIYNTAFMFHEGYLEPPLRLQFIHGILGGIGTAVEDVLFMKQTADRLIGRENYTWSLVGAGRFQMPLGTLAVIMGGDVRVGLEDSLYIERGKLAKSNAEQVEKMVRIVKELGKRPATPDEVREILGLKGKERVNF", "soluble on expression in E. coli": "soluble"}, {"sequence": "GMSENKKKFDKKGAKNMDEISKTLFAPIYPIIAENIINRFGITAGTCIDIGSGPGALSIALAKQSDFSIRALDFSKHMNEIALKNIADANLNDRIQIVQGDVHNIPIEDNYADLIVSRGSVFFWEDVATAFREIYRILKSGGKTYIGGGFGNKELRDSISAEMIRKNPDWKEFNRKNISQENVERFQNVLDEIGISSYEIILGDEGFWIIISKTDQEVI", "soluble on expression in E. coli": "soluble"}, {"sequence": "GMSESPTAGRASLAPLREFITGLSALLDEQPGEARILREGGALLARLVARDDWLPDAFAQPHPEYYQQMLLHCDSAERFSIVSFVWGPGQRTPIHDHTVWGLIGMLRGAEYSQPFVLDGSGRPVLHGEPTRLEPGHVEAVSPTVGDIHRVHNAYDDRVSISIHVYGANIGGVRRSVYTEAGERKPFISGYSNPYLPNPWDRSKDSAAS", "soluble on expression in E. coli": "soluble"}, {"sequence": "GMSGDSEVGTEAGLTLGGDGILRLTWPRGAAITAADAERAMLRVNQLCGDDRHPMLVDMATTADVSRGARAVFGRPCQASRIALLGSSPVDRVLANFFLGINAVPCPTKFFTSERDALTWLALT", "soluble on expression in E. coli": "soluble"}, {"sequence": "GMSIIDLTKLEQKVATMWDSILTNSPFIHEVLDGKATKALYAIYMTETYHYTKHNAKNQALVGIMGKDLPGKYLSFCFHHAHEEAGHELMALSDIASIGFDREDVLSSKPLPATETLIAYLYWISATGNPVQRLGYSYWAENVYGYIDPVLKAIQSTLDLTPQSMKFFIAHSKIDAKHAEEVNEMLHEVCKTQEDVDSVVAVMENSLVLTARILDDVWKEYQLFQSGASDRYAFLRDNA", "soluble on expression in E. coli": "soluble"}, {"sequence": "GMSSSGIEIAKPFVTATTNVLSTMAGIQPIPGQPYVKKNNVAKGDVSAVVGITGHKNGSISVTFTKQCAIAVVKAMLGDDIQDIIQDTKDAVGEVTNMISGQARAALSEMGMTFQGATPSVIMGDGHTISHVTKSPVIAIPFKTNHGEFTVEFCLE", "soluble on expression in E. coli": "soluble"}, {"sequence": "GMTGHIDPTKEVFAQFRANDREGPIHMLNLVRLRPRAAYPDGRETTGAEAYAAYGRDSGPVSERLGGKVVWQGQFELMLIGPQDEHWDHVFIAEYPSVAAFVEMIRDPVYREAVKHRQAAVEDSRLIRLKPLKPGKGFGEIPT", "soluble on expression in E. coli": "soluble"}, {"sequence": "GMTQHLTIAQTYLAAWNEEDNERRRHLVGQAWAENTRYVDPLMQGEGQQGIAAMIEAARQKFPGYRFVLAGTPDGHGNFTRFSWRLISPDGDDVAGGTDVVSLNTEGRIDNVVGFLDGAVS", "soluble on expression in E. coli": "soluble"}]}]}
